Laboratory results published in patent publication US20230226096A1 (Orna Therapeutics, Inc., priority 2020, published 2023).

B1: EV K (nucleic acid)
DNA: TCAGCCTGACGCAAGTGCCTCCATTGGAGTCTCTCCAAGCCCTCCGGGGCTTGGAGGGCGCCGACCCCCTGCCTAGGGGGAGCCCACGACACGGCTGGAGTCCATTGGCACACCGCAGCCACGATTCAAGCCAGAATTGAAAGCGGGAAGCACTTCTGTCTCCCCGGTGTGGATCATACGCTGTACCCACGGCGAAAAGTGAAGCATCGTTACCCGACTCGGTACTTCGAGAAGCCCAGTACAGTTGTGGATCTCTGCAGGGTATACGCTCAGCGTGACCCCTACGTAGTTCCTTGAGATGGCTGAGAGAACACCCCACGGGCGACCGTGTCTCTCGGCGCGTGGCTCAAGGCCGGGCCTTCAGTGGCTCGGTGCCTTGCAGAGTGAAGCCTCCGAACAGCCTATTGAGCTACCGTTTAGCCTCCGCCCTCTTGAATGCGGCTAATCCTAACCATGGAGCGCCCGCCCACAGTCCAGTGGGTAGAGCGTCGTAACGCGCAAGTCCGTGGCGGAACCGACTACTTTAGAGTGGCGTGTTTCCAATTTATCCTTTATAAAGTTGCTTATGGTGACACCACAAGAGATCCACGATTTCTTGTTTCTTATCACTGAGACACAAGTCATATTCATCAATCTTTATTGCGGAATTAACTTGGTGCGTCCAAACACATCAGC
modifications: Enterovirus K
B2: PSIV (2x mut for Xba1) (nucleic acid)
DNA: GCAAAATGGGTACGTAGTTAACCACTGCGTATCAGGATTGCAGGCCACGAAGGGTATTTGCATATCTTTCTATGCGGTATTACGGCTTAAAACCCGTTGTATCTTGTTGTTTGACTGCCTGTATCACTAGTGGCCATTTTATTTAGGTTAGAGACCCCTGATAGTAGGAGAGTTACAAACTCTTTAAAAATTGTTGACCCCGGAAAAGATGGTGACCCCTGTAAGTAGTTGATCAAGAAGATCTATGCGCTGGCATAGTAATCCAGTGTTTCCTGTTTTAGGATGACCTCTGAAAGTAGATGACCGTGGAAAGTCACGTAGTGCCCCAATAAGCACGTTTGGGCAGCGTGCGCTATCACAAGGCTTGATCTCCGAGGAGCCCCTTGTTTTAGCTGGCTGGAAGCCAATGATCTTAAGTAGATAAGTGCTGTTGCTTGTAGTTCAACAGAAAGCTTTGAGTACGTCTTTCTTGCGAGAAAGAACACATGCATTCTTATGCTCTCAATTCTATTATTTTTATTTTGGGCGAAAGGAAAGCTCTCACGCGAGTACGAATAGCCAACCCTTTAT
B3: EV L (nucleic acid)
DNA: ACATGGGCCAGCCCACCACACCCACTGGGTGTAGTAGTCTGGTTCTATGGAACCTTTCTACGCCTCTTTTGCTTCCCTCCCCCATTTCTCCTTCGATTGCTCCACCTGTGATCTTTGCAACTTAGAAGAAATAATGAACCCGCACAATAGCGGGCGCTGAGCCACAGCGTCAATGTGCAAGCACTTCTGTTTCCCCGGAATGGGCCCATAGGCTGTACCCACGGCTGAAAGGGACCGGCCCGTTACCCGCCTTGGTACTGCGAGAATGTTAGTAACTCCCTCGATAGCTTTAGGCGTTACGCTCAGCCCTTTGAGCCCGAAGGGTAGTTCGGGTCGATGAGGCTCGTCATTCCCCACTGGCGACAGTGTGACTTGCCTGCGTTGGCGGCCCGGGGTGGGGGGCAACCCCCATCCACGCCTACTGAAGGACAGGGTGTGAAGGCGCTATTGCGCTACTAAGGAGTCCTCCGGCCCCTGAATGCGGCTAACCCGAACCCCGAGCCCACGGTGGTAAACCCGCCACAAGTGGGTCGTAATGAGTAATTTGGGGCAGGGACCGACTACTTTGGGTGTCCGTGTTTCCTGTTTTTCCATACGATGGCTGCTTATGGTGACAACCATAAGCAATTGGATTGGCCATCCGGTGTTCATATTGCGAAT
modifications: Enterovirus L

What follows are molecules tested on HEK293 cells. Conditions: luminescence from secreted Gluc in supernatant 24 hours after transfection of HEK293 cells; circular RNA encoding Gluc with the named IRES (UTR truncated to 675 nt).
Format: cell-based, human
Work on B1 yielded an Expression of 7.52E+07. With B2 the Expression was 9.70E+04. Work on B3 yielded an Expression of 6.49E+07.
